This passage reports percent of parent results from PMC3887213.

Where a chain is given by its changes, count along the chain named.

Sequences and labels used below:
B1: LRRK2 RocCOR tandem domain (LexA-BD bait, wild type) [human] / TUBB4 C terminus (Phe-317 to Ala-444), GAL4-AD prey [human] (parent)
chain 1: KAVPYNRMKLMIVGNTGSGKTTLLQQLMKTKKSDLGMQSATVGIDVKDWPIQIRDKRKRDLVLNVWDFAGREEFYSTHPHFMTQRALYLAVYDLSKGQAEVDAMKPWLFNIKARASSSPVILVGTHLDVSDEKQRKACMSKITKELLNKRGFPAIRDYHFVNATEESDALAKLRKTIINESLNFKIRDQLVVGQLIPDCYVELEKIILSERKNVPIEFPVIDRKRLLQLVRENQLQLDENELPHAVHFLNESGVLLHFQDPALQLSDLYFVEPKWLCKIMAQILTVKVEGCPKHPKGIISRRDVEKFLSKKRKFPKNYMSQYFKLLEKFQIALPIGEEYLLVPSSLSDHRPVIELPHCENSEIIIRLYEMPYFPMGFWSRLINRLLEISPYMLSGRERALRPNRMYWRQGIYL
chain 2: FRGRMSMKEVDEQMLSVQSKNSSYFVEWIPNNVKTAVCDIPPRGLKMAATFIGNSTAIQELFKRISEQFTAMFRRKAFLHWYTGEGMDEMEFTEAESNMNDLVSEYQQYQDATAEEGEFEEEAEEEVA
B2: LRRK2 RocCOR tandem domain (LexA-BD bait, wild type) [human] / TUBB C terminus (Phe-317 to the stop codon), GAL4-AD prey [human] (parent)
chain 1: B1 chain 1
chain 2: B1 chain 2 with S16N, S19N, A49V, G117E, F119D, E120F, E121G, A123E, E124A, V127E

The first experiment covers variants of B1. The experiment can be described thus: quantitative yeast two-hybrid (Q-YTH). The conditions noted are these: with TUBB4 C terminus (Phe-317 to Ala-444), n = 5, read off a plot.
Turning to chain 1 KAVPYNRMKLMIVGNTGSGKTTLLQQLMKTKKSDLGMQSATVGIDVKDWPIQIRDKRKRDLVLNVWDFAGREEFYSTHPHFMTQRALYLAVYDLSKGQAEVDAMKPWLFNIKARASSSPVILVGTHLDVSDEKQRKACMSKITKELLNKRGFPAIRDYHFVNAAEESDALAKLRKTIINESLNFKIRDQLVVGQLIPDCYVELEKIILSERKNVPIEFPVIDRKRLLQLVRENQLQLDENELPHAVHFLNESGVLLHFQDPALQLSDLYFVEPKWLCKIMAQILTVKVEGCPKHPKGIISRRDVEKFLSKKRKFPKNYMSQYFKLLEKFQIALPIGEEYLLVPSSLSDHRPVIELPHCENSEIIIRLYEMPYFPMGFWSRLINRLLEISPYMLSGRERALRPNRMYWRQGIYL [chain 1 T164A], the percent of parent was determined as 86%. On the same count and under the same terms, in the case of chain 1 KAVPYNRMKLMIVGNAGSGKTTLLQQLMKTKKSDLGMQSATVGIDVKDWPIQIRDKRKRDLVLNVWDFAGREEFYSTHPHFMTQRALYLAVYDLSKGQAEVDAMKPWLFNIKARASSSPVILVGTHLDVSDEKQRKACMSKITKELLNKRGFPAIRDYHFVNATEESDALAKLRKTIINESLNFKIRDQLVVGQLIPDCYVELEKIILSERKNVPIEFPVIDRKRLLQLVRENQLQLDENELPHAVHFLNESGVLLHFQDPALQLSDLYFVEPKWLCKIMAQILTVKVEGCPKHPKGIISRRDVEKFLSKKRKFPKNYMSQYFKLLEKFQIALPIGEEYLLVPSSLSDHRPVIELPHCENSEIIIRLYEMPYFPMGFWSRLINRLLEISPYMLSGRERALRPNRMYWRQGIYL [chain 1 T16A] it was 115%. Still for that read-out and setting: the result for chain 1 KAVPYNRMKLMIVGNDGSGKTTLLQQLMKTKKSDLGMQSATVGIDVKDWPIQIRDKRKRDLVLNVWDFAGREEFYSTHPHFMTQRALYLAVYDLSKGQAEVDAMKPWLFNIKARASSSPVILVGTHLDVSDEKQRKACMSKITKELLNKRGFPAIRDYHFVNATEESDALAKLRKTIINESLNFKIRDQLVVGQLIPDCYVELEKIILSERKNVPIEFPVIDRKRLLQLVRENQLQLDENELPHAVHFLNESGVLLHFQDPALQLSDLYFVEPKWLCKIMAQILTVKVEGCPKHPKGIISRRDVEKFLSKKRKFPKNYMSQYFKLLEKFQIALPIGEEYLLVPSSLSDHRPVIELPHCENSEIIIRLYEMPYFPMGFWSRLINRLLEISPYMLSGRERALRPNRMYWRQGIYL [chain 1 T16D] reads 62%.

A further experiment covers variants of B2. Put plainly: quantitative yeast two-hybrid (Q-YTH). Particulars: with TUBB C terminus (Phe-317 to the stop codon), n = 5, read off a plot.
Take chain 1 KAVPYNRMKLMIVGNTGSGKTTLLQQLMKTKKSDLGMQSATVGIDVKDWPIQIRDKRKRDLVLNVWDFAGREEFYSTHPHFMTQRALYLAVYDLSKGQAEVDAMKPWLFNIKARASSSPVILVGTHLDVSDEKQRKACMSKITKELLNKRGFPAIRDYHFVNAAEESDALAKLRKTIINESLNFKIRDQLVVGQLIPDCYVELEKIILSERKNVPIEFPVIDRKRLLQLVRENQLQLDENELPHAVHFLNESGVLLHFQDPALQLSDLYFVEPKWLCKIMAQILTVKVEGCPKHPKGIISRRDVEKFLSKKRKFPKNYMSQYFKLLEKFQIALPIGEEYLLVPSSLSDHRPVIELPHCENSEIIIRLYEMPYFPMGFWSRLINRLLEISPYMLSGRERALRPNRMYWRQGIYL [chain 1 T164A]: the percent of parent turned out to be 97%.

In the case of chain 1 KAVPYNRMKLMIVGNTGSGKTTLLQQLMKTKKSDLGMQSATVGIDVKDWPIQIRDKRKRDLVLNVWDFAGREEFYSTHPHFMTQRALYLAVYDLSKGQAEVDAMKPWLFNIKARASSSPVILVGTHLDVSDEKQRKACMSKITKELLNKRGFPAIRDYHFVNADEESDALAKLRKTIINESLNFKIRDQLVVGQLIPDCYVELEKIILSERKNVPIEFPVIDRKRLLQLVRENQLQLDENELPHAVHFLNESGVLLHFQDPALQLSDLYFVEPKWLCKIMAQILTVKVEGCPKHPKGIISRRDVEKFLSKKRKFPKNYMSQYFKLLEKFQIALPIGEEYLLVPSSLSDHRPVIELPHCENSEIIIRLYEMPYFPMGFWSRLINRLLEISPYMLSGRERALRPNRMYWRQGIYL [chain 1 T164D], the percent of parent worked out at 35%. The same measure, in the same setting: in the case of chain 1 KAVPYNRMKLMIVGNAGSGKTTLLQQLMKTKKSDLGMQSATVGIDVKDWPIQIRDKRKRDLVLNVWDFAGREEFYSTHPHFMTQRALYLAVYDLSKGQAEVDAMKPWLFNIKARASSSPVILVGTHLDVSDEKQRKACMSKITKELLNKRGFPAIRDYHFVNATEESDALAKLRKTIINESLNFKIRDQLVVGQLIPDCYVELEKIILSERKNVPIEFPVIDRKRLLQLVRENQLQLDENELPHAVHFLNESGVLLHFQDPALQLSDLYFVEPKWLCKIMAQILTVKVEGCPKHPKGIISRRDVEKFLSKKRKFPKNYMSQYFKLLEKFQIALPIGEEYLLVPSSLSDHRPVIELPHCENSEIIIRLYEMPYFPMGFWSRLINRLLEISPYMLSGRERALRPNRMYWRQGIYL [chain 1 T16A] it was 130%; in that of chain 1 KAVPYNRMKLMIVGNDGSGKTTLLQQLMKTKKSDLGMQSATVGIDVKDWPIQIRDKRKRDLVLNVWDFAGREEFYSTHPHFMTQRALYLAVYDLSKGQAEVDAMKPWLFNIKARASSSPVILVGTHLDVSDEKQRKACMSKITKELLNKRGFPAIRDYHFVNATEESDALAKLRKTIINESLNFKIRDQLVVGQLIPDCYVELEKIILSERKNVPIEFPVIDRKRLLQLVRENQLQLDENELPHAVHFLNESGVLLHFQDPALQLSDLYFVEPKWLCKIMAQILTVKVEGCPKHPKGIISRRDVEKFLSKKRKFPKNYMSQYFKLLEKFQIALPIGEEYLLVPSSLSDHRPVIELPHCENSEIIIRLYEMPYFPMGFWSRLINRLLEISPYMLSGRERALRPNRMYWRQGIYL [chain 1 T16D], 58%.
